# B1: 6mer-1-708 (peptide)
# peptide: KKKHEK
# B2: 6mer-1-718 (peptide)
# peptide: RKFKAR
# B3: 6mer-1-716 (peptide)
# peptide: RRMPFK
# B4: 6mer-1-703 (peptide)
# peptide: KKFHPR
# B5: 6mer-1-713 (peptide)
# peptide: KKATNK
# B6: 6mer-1-723 (peptide)
# peptide: RKMPAK
# B7: 6mer-1-714 (peptide)
# peptide: KRTSFK
# B8: 6mer-1-717 (peptide)
# peptide: KRHEDR
# B9: 6mer-1-711 (peptide)
# peptide: RRATHR
# B10: 6mer-1-706 (peptide)
# peptide: KRMKDR
# B11: 6mer-1-732 (peptide)
# peptide: RRAAVR
# B12: 6mer-1-720 (peptide)
# peptide: RRKHKR
# B13: 6mer-1-722 (peptide)
# peptide: RRNKVR
# B14: 6mer-1-699 (peptide)
# peptide: RRTTVR
# B15: 6mer-1-715 (peptide)
# peptide: KRMMVK
# B16: 6mer-1-729 (peptide)
# peptide: KKKSGK
# B17: 6mer-1-701 (peptide)
# peptide: RRKTWR
# B18: 6mer-1-725 (peptide)
# peptide: KKDKPK
# B19: 6mer-1-731 (peptide)
# peptide: RRIKAR
# B20: 6mer-1-710 (peptide)
# peptide: KKMHHR
# B21: 6mer-1-704 (peptide)
# peptide: RRMCER
# B22: 6mer-1-728 (peptide)
# peptide: RRDNAR
# B23: 6mer-1-721 (peptide)
# peptide: RKAMEK
# B24: 6mer-1-712 (peptide)
# peptide: KKPSNK
# B25: 6mer-1-705 (peptide)
# peptide: KRTEWR
# B26: 6mer-1-700 (peptide)
# peptide: RKKMWK
# B27: 6mer-1-702 (peptide)
# peptide: KRDWVK
# B28: 6mer-1-730 (peptide)
# peptide: KRATFR
# B29: 6mer-1-707 (peptide)
# peptide: KRFWPK
# B30: 6mer-1-727 (peptide)
# peptide: RKANGK
# B31: 6mer-1-726 (peptide)
# peptide: KKHSMK
# B32: 6mer-1-709 (peptide)
# peptide: KKFKPK
# B33: 6mer-1-724 (peptide)
# peptide: KRPKNK
# B34: 6mer-1-719 (peptide)
# peptide: KKDAEK
# B35: 6mer-2-221 (peptide)
# peptide: KQVRKK
# B36: 6mer-2-211 (peptide)
# peptide: RGLSRR
# B37: 6mer-2-213 (peptide)
# peptide: KSILRR
# B38: 6mer-2-217 (peptide)
# peptide: KLFQKK
# B39: 6mer-2-223 (peptide)
# peptide: KQLTRR
# B40: 6mer-2-219 (peptide)
# peptide: RGVSKR
# B41: 6mer-2-208 (peptide)
# peptide: RSQQRK
# B42: 6mer-2-206 (peptide)
# peptide: KWQYKK
# B43: 6mer-2-204 (peptide)
# peptide: RRVQKR
# B44: 6mer-2-215 (peptide)
# peptide: RLYYRR
# B45: 6mer-2-202 (peptide)
# peptide: RLIYKK
# B46: 6mer-2-216 (peptide)
# peptide: KGILKK
# B47: 6mer-2-222 (peptide)
# peptide: RVVYRK
# B48: 6mer-2-207 (peptide)
# peptide: KWVSKR
# B49: 6mer-2-214 (peptide)
# peptide: RWRSRK
# B50: 6mer-2-210 (peptide)
# peptide: RSQSRR
# B51: 6mer-2-205 (peptide)
# peptide: KSFQRK
# B52: 6mer-2-218 (peptide)
# peptide: KGVSKK
# B53: 6mer-2-209 (peptide)
# peptide: RLYYRK
# B54: 6mer-2-220 (peptide)
# peptide: KVYSKR
# B55: 6mer-2-224 (peptide)
# peptide: RLFLKR
# B56: 6mer-2-203 (peptide)
# peptide: KSRTKR
# B57: 6mer-2-212 (peptide)
# peptide: KWQLRR
# Target: acetylcholine receptor
# Assay: SPR, peptide at 10 uM, AchR immobilized
row,Binder,Binding affinity
1,B1,14 RU
2,B2,23 RU
3,B3,11 RU
4,B4,18 RU
5,B5,20 RU
6,B6,33 RU
7,B7,25 RU
8,B8,22 RU
9,B9,19 RU
10,B10,29 RU
11,B11,26 RU
12,B12,11 RU
13,B13,12 RU
14,B14,28 RU
15,B15,18 RU
16,B16,23 RU
17,B17,13 RU

row,Binder,Binding affinity
1,B18,32 RU
2,B19,18 RU
3,B20,21 RU
4,B21,16 RU
5,B22,23 RU
6,B23,22 RU
7,B24,24 RU
8,B25,12 RU
9,B26,19 RU
10,B27,31 RU
11,B28,13 RU
12,B29,26 RU
13,B30,29 RU
14,B31,33 RU
15,B32,29 RU
16,B33,19 RU
17,B34,27 RU

# Target: acetylcholine receptor
# Assay: SPR, AchR immobilized on CM5 chip, peptide 10 µM
row,Binder,Binding affinity (RU)
1,B35,153 RU
2,B36,135 RU
3,B37,142 RU
4,B38,135 RU
5,B39,142 RU
6,B40,153 RU
7,B41,128 RU
8,B42,148 RU
9,B43,142 RU
10,B44,123 RU
11,B45,122 RU
12,B46,126 RU
13,B47,127 RU
14,B48,153 RU
15,B49,139 RU
16,B50,128 RU
17,B51,147 RU
18,B52,147 RU
19,B53,148 RU
20,B54,135 RU
21,B55,148 RU
22,B56,135 RU
23,B57,148 RU

# — US20250011363A1, “OPTIMIZED SHORTENED PEPTIDE THAT BINDS TO ACETYLCHOLINE RECEPTOR, AND USE THEREOF” (SKINMED CO., LTD., priority 2021, published 2025)
